Assay: yeast display, Sf9 membrane polyspecificity reagent, FACS + sequencing; frameworks hold sequencing errors
Outline: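 In a synthetic yeast display library (Saccharomyces cerevisiae BJ5465), nanobody expression was induced with galactose for 36–48 hours. FACS gates were set low and high (top ~1%) using anti-HA fluorescence for expression and streptavidin fluorescence for binding of the Sf9 membrane reagent. Each polyreactivity label is drawn from the gate of origin.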

| Sequence | polyreactivity (PSR sort gate) |
| --- | --- |
| QVQLVESGRGLVQAGGSLRLSCAASGSTFVANDMGWYSQAPGKERELVAAISWSDATTYYADSVKGRGTISRDNAKNTVYLQMNSRKPEDNAVYDCAATRDTNNMDYWGHGTQVTVSS | low polyreactivity |
| QVQLVESGRGLVQAGGSLRLSCAASGVTFNVYAMGWYREAPGKVRELVAAISYNGGRTYYADSVKGRFTISRDNAKNTVYLQINSLKPEDTAVFYCAALYYFTPSDGRRYDYWGQCTQVTVSS | high polyreactivity |
| QVQLVESGRGLVQAGGSLRLSCAPSGFTFHNNVMGWYRQAPGKERELVATISKSGGSTYYADSVKGRFTISRDNAKNTVYLQMNSLKPEDTAVYYCARRYRDYGRYGYWGQGTQVTVSS | high polyreactivity |
| QVQLVESGRGLVQAGGSLRLSCAPSGLNFVRYAMGWYRQAPGKERELVARITSRGTSTYYADSVKGRFTISRDNAKNTVYLQMNSLKPEDTAVYYCIKFRSFRDKTRYDYWGQGTQVTVSS | low polyreactivity |
| QVQLVESGRGLVQAGGSLRLSCASSGRIFTYTAMGWYRQAPWKDSELVARITSGGNTNYADSVKGRFTISRDNAKNTVYLPMNSLKPEDTAVYYSATGLYWFTNRYGCWGLGTQVTVSS | low polyreactivity |
| QVQLVESGRGLVQAGVSLRISCAPSGRIFSGYAMGWYRQAPGKERELVAAITSSSGSTYYADSVKWRFTISRDNAKNTFYLQMISLKPEDTAVYYCAAEYVRLYWYTSDYWGQGTEVTVSS | low polyreactivity |
| QVQLVESGRRLVQAGGSLRLSCAASGLTLYKNGMGWYRKAPGQVRELVAVISRSGGRTYYADSVKGRFTISRDNAKNTVYVQMNSLKPEDTAVYYCAARQYGPRYTYYYWGQGTQVTVSS | high polyreactivity |
| QVQLVESGVCIVQAGGSLRLSGADSGNTLIQYAMRWYRQPHGKERELVAGISGSDDSTYYADSVKGRFTISRDNAKNTVYLQMNSLKPEDTAVYYCAALSISPSRTGYYWGQGTQVTVSS | low polyreactivity |
| QVQLVESGVCLVQAGGSLRLICAASGNTFYRYAMGWYRQAPGKERELVAAITGRGGSTYYADSVKGRFTISRDNAKNTVYLQMNSQKPEDTAVYYCAAESYGYGNDYWGQGTQVTVSS | low polyreactivity |
| QVQLVESGVCLVQAGGSLRLSCAASGFTFKWYAMGWYRQAPGKERELVATITIGGRTNYADSVKGRFTISRDNAKNTVYLQMNSLKPEETAVYYCATYFVGFRLSDYDYWGQGTQVTVSS | low polyreactivity |
| QVQLVESGVCLVQAGGSLRLSCAASGSTYTYAMGWYRQAPGKERELVADITQSGGSTYYADSVKGRFTISRDNAKKTVYLQMNTLKPEDTAVYYCNAESRHVFEDEYWGQGTQVTVSS | low polyreactivity |
| QVQLVESGVCLVQAGGSLRLSCAATGFTIKYYAMGWYRQPPGKEMELVAAISWTGANTYYADSVKGRFTISRDNAKNTVYLQMNSLKPDYTAVYYCAAGYLIGHSVRTTVRTIYEYWGQGTQVTVSS | high polyreactivity |
| QVQLVESGVGLDQAGGSLRLSCAASGGIIAINAMGWYSQAPGKERELVAAISWGDGMTYYADSVKGRFTISRDNAKNTVYLQMNSLKPDDSAVYYCAADADEYRGGDVSWGQGTQVTVSS | low polyreactivity |
| QVQLVESGVGLLQEGGSLSLSCAASGRTFRWYGMGWYSQAPGKEREFVAAISFRGGTTYYADSVKGRFTISRDNAKNTVYLQMNSLKPEDTAVYYCAARSGYYTSDYKYYYWGQGTQVTVSS | high polyreactivity |
| QVQLVESGVGLVKAGGSLRLSCAASGFTIRPYAMGWYRQAPGKERELVAAITSGDSTNYADSVKGRFTISRDNAKNTVYLQMNSLKPEDTAVYYCAVDGGEFTSYGYWGQGTQVTVSS | low polyreactivity |
| QVQLVESGVGLVKAGGTLRLSCAASGGIFDYNAMGWYRQAPGKERELVAYYADSVKGRFTLSRDNAKNTVYLQMNSLKPEDTAVYYCAVDGGEFSSYGYWGQGTQVTVSS | low polyreactivity |

| Sequence | polyreactivity (PSR sort gate) |
| --- | --- |
| QVQLVESGVGLVNAGGSLRLSCAASGYIFSPNVMGWYRQAPGKERELVAAITRGGGTYYADSVKGRFTISRDNAKNTVYLHLNSLKPEDTAVYYCNEDYTLSVYGTTYCYNYWGQGTQVTVSS | high polyreactivity |
| QVQLVESGVGLVQAAGSLRLSCAASGRIFYHYTMGWYRQAPGKERELVAAITSGGSTYYADSVKGRFTISRDNAKNTVYLQMNSLKPEDTAVYYCAAEGYTYYPVYSTRMYYWGQGTQVTVSS | low polyreactivity |
| QVQLVESGVGLVQAGGSIRLSCAASGRTFRYYTMGWYRQAPGKEREFVAAISSTGGTYYADSVKGRFTISRDNAKNTVYLQMNSLKPEDTAVYYCAATFIQVVVNVQLYDYDYWGQGTQVSVSS | low polyreactivity |
| QVQLVESGVGLVQAGGSLRLCCAASGSTSKYYAMVWYRQSPGKERELVAAITWSDVSTYYADSVKGRFTISRDNAKNTVYLQMNSLKPADTAVYYCNAGYDYWGQGTQVTVSS | low polyreactivity |
| QVQLVESGVGLVQAGGSLRLICAASGRIFANYAMGWYRQAPGKERELVAAITGSGGTTYYADSVKGRFTISRDNAKNSVYLEMNSLKPEDTAVYYCATPPPVVWQRWYREYDYWGQGTQVTVSS | low polyreactivity |
| QVQLVESGVGLVQAGGSLRLIWAASGSTFVKNVMGWYRQAPGKERELVAGITRGGSTYYADSVKGRFTISRDNAKKTVYLQMNSLKPEDTAVYYCAKRYAWDRDYWGQGTQVTVSS | high polyreactivity |
| QVQLVESGVGLVQAGGSLRLSCAASGFIFYGYAMGWYRQAPGKERELVAGNSTGGSTNYADSVKGRFTISRENAKNTVYLQMNSMKPEDTAVYDGAVVDVEQHVGHWGQVTQVTVSS | low polyreactivity |
| QVQLVESGVGLVQAGGSLRLSCAASGFIIRTYAMGWYIQAPGKERELVATITGDGSTNYADSVKGRFTISRDNAKNTVYLQMNSLKPEDTAVYYCSRDDRLAVDYWGQGTQVTVSS | low polyreactivity |
| QVQLVESGVGLVQAGGSLRLSCAASGFTFMKNAMGWYRQAPGKERELVAAITSSGGRPYYADSVKGRFTISRDIAKNTVYLQMNSLKPEDTAVYYCNKGPLPGYDYWGQGTQVTVSS | high polyreactivity |
| QVQLVESGVGLVQAGGSLRLSCAASGFTFTRYAMGWYRQAPGKERELVAAISWTGGSTYYADSVKGRFTISRDNAKNTVYLQMNSLKPEDTAVYYCAGRFNYQWSKFGYWGQGTQVTVSS | high polyreactivity |
| QVQLVESGVGLVQAGGSLRLSCAASGGIFVPYAMGWYRQAPGKERELVAGITSGGSTNYADSVKGRFTISRDNAKNTVYLQMNSLKPEDTAVYYCAARRRPGGRYKSRVWYDYWGQGTQVTVSS | high polyreactivity |
| QVQLVESGVGLVQAGGSLRLSCAASGGNFWSYPMGLYRQAPGKEREYVAAITTSAGRTNYADSVKGRFTISRDNAKNSVYLQMNSLKPEDTAVYYCAARSAYPGLGYGFDYWGQGTQVTVSS | low polyreactivity |
| QVQLVESGVGLVQAGGSLRLSCAASGIILYRYSMGWYRQAPGKEREFGAAISRTGASTYYADSVKGRFTISRDNAKKSVYLQMNSRKPEDTAVYYCDVKALDQARYGKSGYWGQGTQVSVSS | high polyreactivity |
| QVQLVESGVGLVQAGGSLRLSCAASGITFAGNAMGWYRQAPGKERELVATITSDGNTNYADSVKGRFTISRDNAKNTVYLQMNSLKPEDTAVYYCNAEVIVGTDEYDYWGQGTQVTVSS | low polyreactivity |
| QVQLVESGVGLVQAGGSLRLSCAASGITFYSYAMGWYRQAPGKERELVAAITLTGGTTYYADSVKGRFTISRDNAKNTVYLQMKSLKPEDTAVYYCAAQYWWWSLFEYDSWGQGTQVTVSS | low polyreactivity |
| QVQLVESGVGLVQAGGSLRLSCAASGNIFLKNAMGWYRQAPGKERELVAAMSKRGGSTYYADSVKGRFTISRDNAKNTVYLQMNSLKPEDTAVYYCAARFKTTGYDYWGQGTQVTVSS | high polyreactivity |

Source: the nanobody polyreactivity screen of Harvey et al. (2022)
